This note sets out measurements from patent publication US20170260266A1 (GlaxoSmithKline, published 2017).

Where “and” joins values, the source holds several entries; their conditions need not be identical. Identical values can stand only once.

Test [1] concerns the target T1, full length (mature) human TSLP, recombinant (human, UniProt Q969D9 29-159, biotinylated in the SPR assay on the SA chip).
T1 construct: also called hTSLP; Human TSLP from E. coli
As to the kind of experiment: ELISA RBA, geometric mean. In general terms: ELISA stands for enzyme-linked immunosorbent assay.

Test [2] addresses T1, full length (mature) human TSLP, …. As to the kind of experiment: cell-based or functional assay.
Test [3] shares this target. As to the kind of experiment: SPR, biotinylated TSLP on SA chip (Biacore 4000). In general terms: SPR reads the build-up and loss of mass on a sensor chip optically.
For test [4] the target is unchanged. As to the kind of experiment: SPR, biotinylated TSLP on SA chip; all concentrations (footnote 1).
For test [5] the target is unchanged. As to the kind of experiment: SPR, biotinylated TSLP on SA chip; value excluding 1000 nM concentration.
Test [6] concerns the target T2, human IL-7 (human, UniProt P13232 26-177).
T2 construct: Immobilised on a CM4 chip by primary amine coupling; also called Mature processed human IL-7
T2 sequence: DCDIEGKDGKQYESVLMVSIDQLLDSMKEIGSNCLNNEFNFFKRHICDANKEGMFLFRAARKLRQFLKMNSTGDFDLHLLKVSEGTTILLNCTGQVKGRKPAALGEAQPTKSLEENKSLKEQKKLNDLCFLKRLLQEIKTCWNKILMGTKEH
As to the kind of experiment: SPR (Biacore).

The target of test [7] is T1, full length (mature) human TSLP, …. As to the kind of experiment: SPR with biotinylated TSLP; mean of two experiments.
The target in test [8] is T3, native human TSLP (supernatant from stimulated human lung fibroblasts) (human, UniProt Q969D9 29-159). As to the kind of experiment: cell-based or functional assay.
Test [9] addresses T1, full length (mature) human TSLP, …. As to the kind of experiment: cell-based or functional assay. This is another data set of the same source.
Test [10] has as its target T4, short form TSLP (synthetic biotinylated 63 amino acid peptide comprising residues 69-131 of mature full … (human, biotinylated (position not given))).
T4 construct: also called sfTSLP; sf TSLP
As to the kind of experiment: ForteBio Octet, biotinylated sfTSLP on streptavidin tips. A general note: Biolayer interferometry detects binding as a change in optical thickness at a sensor tip.

Test [11] has as its target T1, full length (mature) human TSLP, …. As to the kind of experiment: TSLP receptor binding assay (RBA, ELISA, OD 450 nm): dAb titrated against recombinant human TSLP (1 ng/ml); blocked is the binding of TSLP to the plate-coated TSLP receptor complex.
Test [12] shares this target. As to the kind of experiment: cell-based or functional assay. The source holds these as a separate data set.
Test [13] deals with T3, native human TSLP (supernatant from …). As to the kind of experiment: TSLP receptor binding assay (RBA, ELISA, OD 450 nm): dAb titrated against native human TSLP (supernatant of stimulated human lung fibroblasts); blocked is the binding of TSLP to the plate-coated TSLP receptor complex.
Test [14] deals with T1, full length (mature) human TSLP, …. As to the kind of experiment: RBA, geometric mean (n = 2).
Test [15] addresses glycosylated recombinant human TSLP expressed from HEK cells (human, UniProt Q969D9 29-159, glycosylated). As to the kind of experiment: cell-based or functional assay.

T4 sequence (peptide, as listed by the source): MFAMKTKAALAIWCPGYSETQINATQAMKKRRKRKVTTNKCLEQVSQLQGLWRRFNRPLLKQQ

B1: DOM30h-440-65 (other)
VL: DIQMTQSPSSLSASVGDRVTITCRASRPIRNWLDWYQQKPGKAPKLLIWGASHLQSGVPSRFSGSGSGTDFTLTISSLQPEDFATYYCMQIGEDPVTFGQGTKVEIKR
Broadly, the IC50 is the concentration that inhibits the measured activity by half. Usually Kd stands for a measure of binding affinity in units of concentration. Regarding B1, the IC50 in test [1] was determined as 0.69 nM. Besides, the “pSTAT5 assay in SW756 cells, Geometric Mean IC50” value (from here on “pSTAT5 assay in SW756 cells”) in test [2] was 0.78 nM. Also, the Kd in test [3] was 3.84 nM.

B2: DOM30h-440-56 (other)
VL: DIQMTQSPSSLSASVGDRVTITCRASRPIRNWLDWYQQKPGKAPKLLIWGASHLQSGVPSRFSGSGSGTDFTLTVSSLQPEDFATYYCMQIGEDPVTFGQGTKVEIKR
With B2, in [1], the IC50 was 0.56 nM. In addition, the “pSTAT5 assay in SW756 cells” value in [2] was found to be 0.99 nM. For the same molecule, the Kd in [3] stood at 2.47 nM.

B3: DOM30h-440-53 (other)
VL: DIQMTQSPSSLSASVGDRVTITCRASRPIRNWLDWYQQKPGKAPKLLIWGASHLQSGVPSRFSGSGSGTDFTLTISSLQPEDFATYYCLQVGEDPVTFGQGTKVEIKR
As for B3, the IC50 in [1] was 2 nM. Moreover, the “pSTAT5 assay in SW756 cells” value in test [2] was 1.92 nM. For the same molecule, the Kd in test [3] amounted to 3.05 nM.

B4: DOM30h-440-55 (other)
VL: DIQMTQSPSSLSASVGDRVTITCRASRPIRNWLDWYQQKPGKAPKLLIWGASHLQSGVPSRFSGSGSGTDFTLTISSLQPEDFATYYCVQIGEDPVTFGQGTKVEIKR
For the molecule B4, the IC50 in test [1] was found to be 0.87 nM. The “pSTAT5 assay in SW756 cells” value in test [2] came to 1.1 nM. The Kd in test [3] was 2.78 nM.

B5: DOM30h-440-54 (other)
VL: DIQMTQSPSSLSASVGDRVTITCRASRPIRNWLDWYQQKPGKAPKLLIWGASHLQSGVPSRFSGSGSGTDFTLTISSLQPEDFATYYCWQLAFDPTTFGQGTKVEIKR
Consider B5, for which the IC50 in test [1] is 2.15 nM. In addition, the “pSTAT5 assay in SW756 cells” value in test [2] is 1.52 nM. Besides, the Kd in test [3] was 3.82 nM.

B6: DOM30h-440-58 (other)
VL: DIQMTQSPSSLSASVGDRVTITCRASRPIRNWLDWYQQKPGKAPKLLIWGASHLQSGVPSRFSGSGSGTDFTLTISSLQPEDFATYYCLQIADDPVTFGQGTKVEIKR
Consider B6, for which the IC50 in test [1] was found to be 1.41 nM. In addition, the “pSTAT5 assay in SW756 cells” value in [2] turned out to be 1.91 nM. In addition, the Kd in test [3] amounted to 2.65 nM.

B7: DOM30h-440-60 (other)
VL: DIQMTQSPSSLSASVGDRVTITCRASRPIRNWLDWYQQKPGKAPKLLIWGASHLQSGVPSRFSGSGSGTDFTLTISSLQPEDFATYYCIQFGEDPVTFGQGTKVEIKR
B7: in test [1], the IC50 was 0.32 nM. Further, the “pSTAT5 assay in SW756 cells” value in test [2] was 0.7 nM. Also, in [3], the Kd turned out to be 0.14 nM.

B8: DOM30h-440-63 (other)
VL: DIQMTQSPSSLSASVGDRVTITCRASRPIRNWLDWYQQKPGKAPKLLIWGASHLQSGVPSRFSGSGSGTDFTLTISSLQPEDFATYYCMQIGSDPVTFGQGTKVEIKR
On to B8, for which the IC50 in test [1] amounted to 1.55 nM. In test [2], the “pSTAT5 assay in SW756 cells” value was determined as 2.21 nM. Moreover, the Kd in [3] is 4.22 nM.

B9: DOM30h-440-57 (other)
VL: DIQMTQSPSSLSASVGDRVTITCRASRPIRNWLDWYQQKPGKAPELLIWGASHLQSGVPSRFSGSGSGTDFTLTISSLQPEDFATYYCMQIGDDPVTFGQGTKVEIKR
On to B9, for which the IC50 in test [1] came to 0.34 nM. Moreover, the Kd in [4] is 3.48 nM; in test [5] it was 1.5 nM. The “pSTAT5 assay in SW756 cells” value in test [2] was determined as 0.56 nM.

B10: DOM30h-440-64 (other)
VL: DIQMTQSPSSLSASVGDRVTITCRASRPIRNWLDWYQQKPGKAPKLLIWGASHLQSGVPSRFSGSGSGTDFTLTISSLQPEDFATYYCLQIGEDPVTFGQGTKVEIKR
For the molecule B10, the IC50 in [1] stood at 0.95 nM. Besides, the “pSTAT5 assay in SW756 cells” value in [2] was 3.26 nM. Further, the Kd in test [3] was determined as 6.17 nM.

B11: DOM30h-440-81/86 (other)
VL: DIQMTQSPSSLSASVGDRVTITCRASRPIRNWLDWYQQKPGKAPKLLIWGASHLQSGVPSRFSGSGSGTDFTLTISSLQPEDFATYYCVQIGEDPVTFGQGTKVEIK
notes: Vk single variable domain (dAb); DOM30h-440-55 with the C-terminal R removed (-R); also called DOM30h-440-86; TSLP dAb
By koff is commonly meant the first-order rate constant of dissociation. For orientation: kon means the rate constant with which the complex forms. In the case of B11, the binding result in [6] is given as “no binding”. Besides, in test [7], the Kd was 0.867 nM and 0.87 nM; the koff was 0.000508 s⁻¹; the kon was 619000 M⁻¹ s⁻¹. Besides, the “native TSLP-induced STAT5 phosphorylation in SW756 cells, Geometric Mean IC50” value in [8] was found to be 0.86 nM. Moreover, in test [9], the “IL-5 production from human PBMC stimulated with a mixture of TSLP, IL-33 and IL-25, Geometric Mean IC50” value turned out to be 129 nM. Further, in [10], the binding result is “no binding”. In addition, the “IC50 (read off the curve)” value in test [11] is roughly 4 nM. In test [12], the “Inhibition of TSLP-induced TARC in whole blood, Geometric Mean IC50 (n = 7)” value was found to be 2.4 nM and the “Inhibition of TSLP-induced pSTAT5 in SW756 cells, Geometric Mean IC50 (n = 5)” value came to 1.92 nM. The “IC50 (read off the curve)” value in test [13] was roughly 0.1 nM. Moreover, the IC50 in test [14] turned out to be 1.94 nM. Also, in [15], the “Inhibition of TSLP-induced TARC in whole blood, Geometric Mean IC50 (n = 6)” value was determined as 3.1 nM and the “Inhibition of TSLP-induced pSTAT5 in SW756 cells, Geometric Mean IC50 (n = 3)” value stood at 0.55 nM.
